Measurements taken from patent US20250277057A1 (OKLAHOMA MEDICAL RESEARCH FOUNDATION, published 2025).

Tests used:
[1] = target: T1, human protein C (human, UniProt P04070 43-461); experiment: ELISA, plate coated with hPC 1 ug/mL, anti-hIgG-Fc-HRP
T1 construct: Zymogen form, coated on ELISA plates; also called hPC; PC
Experimental: (§1) The binding abilities of the anti-aPC monoclonal antibodies to haPC/hPC were assayed by Elisa. […] 1. ELISA plates were coated with haPC/hPC (1 ug/mL in PBS), 100 μL/well, at 4° C. overnight. […] 2. The plates were washed 3 times with PBST (0.1% Tween 20), 200 μL/well. […] 3. The plates were blocked with 2% BSA (PBS solution), 200 μL/well, at room temperature for 1 hour. […] 4. The plates were washed 3 times with PBST (0.1% Tween 20), 200 μL/well. […] 5. The plates were incubated with anti-aPC monoclonal antibody as primary antibody (diluted from 10 μg/mL in 2% BSA), 100 μL/well, at room temperature for 1 hour. […] 6. The plates were washed 3 times with PBST (0.1% Tween 20), 200 μL/well. [0200] 7. The plates were incubated with anti-hIgG-Fc antibody-HRP (diluted 5000-fold in 2% BSA buffer) at room temperature for 1 hour. [0201] 8. The plates were washed 6 times with PBST (0.1% Tween 20), 200 μL/well. [0202] 9. The plates were incubated with a TMB substrate (prepared from solutions A and B at 1:1 (v/v)), 100 μL/well, away from light for 10 minutes. […] 10. The reaction was quenched with HCl (1 M), 100 μL/well, and OD450 was read.

[2] = target: T1, human protein C; experiment: ELISA on plate-coated HPC, OD450
Experimental: as §1

[3] = target: T2, human activated protein C (human, UniProt P04070 43-197; P04070 212-461); experiment: cell-based or functional assay
[4] = target: T2, human activated protein C; experiment: Octet BLI, antibody on Protein A sensor, huAPC 3.13-50 nM, 1:1 model, 25 C, pH 7.4
Experimental: Assay method: Octet analysis was carried out at 25° C. using a Protein A Octet biosensor in 1× Kinetics buffer. During the kinetics assay, the baseline step assay was run in 1× Kinetics buffer for 120 seconds, and then run for 240 seconds after the antibody was loaded to the biosensor. Next, the baseline 2 step assay was run in 1× Kinetics buffer for 120 seconds. […] The 1× Kinetics buffer was used as a blank control to show the natural dissociation of the antibody in the buffer. 10 mM glycine at pH 1.5 was used for the regeneration step. Octet data analysis software was used to calculate binding kinetics, and a 1:1 binding model was used for curve fitting.
The affinities of the mutant antibodies were assayed at pH 7.4.

[5] = target: T2, human activated protein C; experiment: ELISA, plate coated with haPC 1 ug/mL, anti-hIgG-Fc-HRP
Experimental: as §1

[6] = target: human activated protein C (human) (UniProt P04070); experiment: cell-based or functional assay

Row | Binder | Span [1] | binding result [2] | Mean clotting time (s), FIX-deficient plasma, APC-antibody concentration 0.5 ug/ml [3] [s] | Mean clotting time (s), FIX-deficient plasma, APC-antibody concentration 1 ug/ml [3] [s] | Mean clotting time (s), FIX-deficient plasma, APC-antibody concentration 5 ug/ml [3] [s] | Mean clotting time (s), FVIII-deficient plasma, APC-antibody concentration 0.5 ug/ml [3] [s] | Mean clotting time (s), FVIII-deficient plasma, APC-antibody concentration 1 ug/ml [3] [s] | Mean clotting time (s), FVIII-deficient plasma, APC-antibody concentration 5 ug/ml [3] [s] | Kd [4] [nM] | koff [4] [s⁻¹] | kon [4] [M⁻¹ s⁻¹] | EC50 [5] [nM] | Span [5] | other results
1 | HAPC-14-1 (antibody, V domains shown, Whole IgG, backbone hIgG1; also called HPAC14-1) VH: EVQLVESGGGLVQPGGSLRLSCAASGFTFSFYYLNWVRQAPGKGLEWVGDIRLKSNNYEKHYAESVKGRFTISRDDSKSITYLQMNSLRAEDTAVYYCAREGDYFDYWGQGTTVTVSS VL: DIQLTQSPSSLSASVGDRVTITCRASESVDSFGATFMHWYQQKPGKAPKLLIYLASWLGSGVPSRFSGSGSGTDFTLTISSLQPEDFATYYCQQNNEDPYTFGQGTKLEIK | 0.023 | no binding (tested: 10^2 nM) | 219 | 195 | 171 | 327 | 222 | 166 | 3.83 | 0.00117 | 306000 | 0.114 | 2.11 | 
2 | HAPC-14-2 (antibody, V domains shown, Whole IgG, backbone hIgG1; also called HPAC 14-2) VH: EVQLVESGGGLVQPGGSLRLSCAASGFTFSFYYLNWVRQAPGKGLEWVGDIRLKKNNYEKHYAESVKGRFTISRDDSKSITYLQMNSLRAEDTAVYYCAREGDYFDYWGQGTTVTVSS VL: DIQLTQSPSSLSASVGDRVTITCRASESVDSFGATFMHWYQQKPGKAPKLLIYLASWLESGVPSRFSGSGSGTDFTLTISSLQPEDFATYYCVQNNEDPYTFGQGTKLEIK | 0.0104 | no binding (tested: 10^2 nM) | 233 | 211 | 143 | 358 | 196 | 159 | 3.78 | 0.00116 | 307000 | 0.111 | 1.77 | 
3 | HAPC-14-4 (antibody, V domains shown, Whole IgG, backbone hIgG1; also called HPAC 14-4) VH: EVQLVESGGGLVQPGGSLRLSCAASGFTFSFYYLNWVRQAPGKGLEWVGDIRLKSNNYEKHYAESVKGRFTISRDDSKSITYLQMNSLRAEDTAVYYCAREGDYFDYWGQGTTVTVSS VL: DIQLTQSPSSLSASVGDRVTITCRASESVDSFGATFMHWYQQKPGKAPKLLIYLASRLGSGVPSRFSGSGSGTDFTLTISSLQPEDFATYYCVQNNEDPYTFGQGTKLEIK | 0.157 | no binding (tested: 10^2 nM) | 220 | 194 | 176 | 221 | 184 | 158 | 4.06 | 0.00126 | 310000 | 0.0605 | 1.52 | 
4 | HAPC1573 (antibody, from another filing, V domains shown) VH: EVKLEESGGGLVQPGGSMKLSCVASGFTFSNYYLNWVRQSPEKGLEWVADIRLKSNNYEKHYAESVKGRFTISRDDSKSSVYLQMNNLRAEDTGIYYCIREGDYFDYWGQGTTLTVSS VL: NIVLTQSPASLAVSLGQRATISCRASESVDSFGATFMHWYQQKPGQPPKLLIYLASNLESGVPARFSGSGSRTDFTLTIDPVEADDAATYYCQQNNEDPYTFGGGTKLEIKR |  |  |  |  |  |  |  |  |  |  |  |  |  | Mean clotting time (s), FIX-deficient plasma, APC-antibody concentration 0.5 ug/ml [6]: 584 s; Mean clotting time (s), FIX-deficient plasma, APC-antibody concentration 1 ug/ml [6]: 567 s; Mean clotting time (s), FIX-deficient plasma, APC-antibody concentration 5 ug/ml [6]: 404 s; Mean clotting time (s), FVIII-deficient plasma, APC-antibody concentration 0.5 ug/ml [6]: 600 s; Mean clotting time (s), FVIII-deficient plasma, APC-antibody concentration 1 ug/ml [6]: 629 s; Mean clotting time (s), FVIII-deficient plasma, APC-antibody concentration 5 ug/ml [6]: 389 s; antibody concentration needed to inhibit the anticoagulant activity of aPC, Protac-induced APTT in factor-deficient human plasma [6]: > 100 µg/mL

Second part, led by results:

Row | Span [1] | binding result [2] | Mean clotting time (s), FIX-deficient plasma, APC-antibody concentration 0.5 ug/ml [3] [s] | Mean clotting time (s), FIX-deficient plasma, APC-antibody concentration 1 ug/ml [3] [s] | Mean clotting time (s), FIX-deficient plasma, APC-antibody concentration 5 ug/ml [3] [s] | Mean clotting time (s), FVIII-deficient plasma, APC-antibody concentration 0.5 ug/ml [3] [s] | Mean clotting time (s), FVIII-deficient plasma, APC-antibody concentration 1 ug/ml [3] [s] | Mean clotting time (s), FVIII-deficient plasma, APC-antibody concentration 5 ug/ml [3] [s] | Kd [4] [nM] | koff [4] [s⁻¹] | kon [4] [M⁻¹ s⁻¹] | EC50 [5] [nM] | Span [5] | Binder | other results
5 | ~0.0475 | no binding (tested: 10^2 nM) | 197 | 188 | 166 | 224 | 200 | 171 | 2.83 | 0.000911 | 322000 | 0.0924 | 1.63 | HAPC-14-5 (antibody, V domains shown, Whole IgG, backbone hIgG1; also called HPAC 14-5) VH: EVQLVESGGGLVQPGGSLRLSCAASGFTFSFYYLNWVRQAPGKGLEWVGDIRLKKNNYEKHYAESVKGRFTISRDDSKSITYLQMNSLRAEDTAVYYCAREGDYFDYWGQGTTVTVSS VL: DIQLTQSPSSLSASVGDRVTITCRASESVDSFGATFMHWYQQKPGKAPKLLIYLASWLGSGVPSRFSGSGSGTDFTLTISSLQPEDFATYYCVQNNEDPYTFGQGTKLEIK | 
6 | ~0.00145 | no binding (tested: 10^2 nM) | 331 | 158 |  | 254 |  |  | 19 | 0.00428 | 225000 | 0.28 | 0.745 | HAPC-14-10 (antibody, V domains shown, Whole IgG, backbone hIgG1; also called HPAC 14-10) VH: EVQLVESGGGLVQPGGSLRLSCAASGFTFSNYYLNWVRQAPGKGLEWVGDIRLKKNNYEKHYAESVKGRFTISRDDSKSITYLQMNSLRAEDTAVYYCAREGDTFDYWGQGTTVTVSS VL: DIQLTQSPSSLSASVGDRVTITCRASESVDSFGATFMHWYQQKPGKAPKLLIYLASRLGSGVPSRFSGSGSGTDFTLTISSLQPEDFATYYCVQNNEDPYTFGQGTKLEIK | Mean clotting time (s), FIX-deficient plasma, APC-antibody concentration 0.05 ug/ml [3]: 733 s; Mean clotting time (s), FIX-deficient plasma, APC-antibody concentration 0.1 ug/ml [3]: 596 s; Mean clotting time (s), FVIII-deficient plasma, APC-antibody concentration 0.05 ug/ml [3]: 415 s; Mean clotting time (s), FVIII-deficient plasma, APC-antibody concentration 0.1 ug/ml [3]: 309 s
7 | 0.012 | no binding (tested: 10^2 nM) | 170 |  |  | 182 |  |  | 9.69 | 0.00238 | 245000 | 0.0761 | 1.07 | HAPC-14-9 (antibody, V domains shown, Whole IgG, backbone hIgG1; also called HPAC 14-9) VH: EVQLVESGGGLVQPGGSLRLSCAASGFTFSFYYLNWVRQAPGKGLEWVGDIRLKKNNYEKHYAESVKGRFTISRDDSKSITYLQMNSLRAEDTAVYYCAREGDTFDYWGQGTTVTVSS VL: DIQLTQSPSSLSASVGDRVTITCRASESVDSFGATFMHWYQQKPGKAPKLLIYLASRLGSGVPSRFSGSGSGTDFTLTISSLQPEDFATYYCQQNNEDPYTFGQGTKLEIK | Mean clotting time (s), FIX-deficient plasma, APC-antibody concentration 0.05 ug/ml [3]: 670 s; Mean clotting time (s), FIX-deficient plasma, APC-antibody concentration 0.1 ug/ml [3]: 611 s; Mean clotting time (s), FVIII-deficient plasma, APC-antibody concentration 0.05 ug/ml [3]: 262 s; Mean clotting time (s), FVIII-deficient plasma, APC-antibody concentration 0.1 ug/ml [3]: 217 s
8 | ~0.00661 | no binding (tested: 10^2 nM) | 241 | 145 | 146 | 297 | 198 | 176 | 7.72 | 0.00197 | 256000 | 0.13 | 1.58 | HAPC-14-7 (antibody, V domains shown, Whole IgG, backbone hIgG1; also called HPAC 14-7) VH: EVQLVESGGGLVQPGGSLRLSCAASGFTFSFYYLNWVRQAPGKGLEWVGDIRLKSNNYEKHYAESVKGRFTISRDDSKSITYLQMNSLRAEDTAVYYCAREGDYFDYWGQGTTVTVSS VL: DIQLTQSPSSLSASVGDRVTITCRASESVDSFGATFMHWYQQKPGKAPKLLIYLASRLESGVPSRFSGSGSGTDFTLTISSLQPEDFATYYCQQNNEDPYTFGQGTKLEIK | 
